Test: yeast display, Sf9 membrane polyspecificity reagent, FACS + sequencing; frameworks hold sequencing errors
In short: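 After 36–48 hours of galactose induction, yeast (Saccharomyces cerevisiae BJ5465) displaying a synthetic nanobody library were stained at 4 °C for 1 hour with 10% biotinylated, detergent-solubilized Sf9 membrane reagent. Streptavidin microbeads enriched the stained cells before FACS sorting into low and high (top ~1%) gates on anti-HA and streptavidin fluorescence. Each clone's polyreactivity label reflects its gate of origin.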

Row | Sequence | polyreactivity (PSR sort gate)
1 | QFHHVESGGGLVQAGGSLRLTCAATGIIILGNAKGWYRQAPGKERELVATITSGGTTNYADSVKGRFTISRDNAKNTVYLQMNSLIPEDTAVYYCNKRSYDQQEYEYDYWGQGTQVTVSS | low polyreactivity
2 | QFHLVESGGGIVQAGGSLRLSCAASGFTFAYYAMGRNRQAPGKERELVAAISSGGRTYYADSVKGRFTISRDNAQNTVYLQLNSLKPEDTAVYYCKTVPYYDALTYPFDSWGQGTQVTVSS | low polyreactivity
3 | QFHLVESGGGLVQAGGSLRLSCAASGRNLVRYAMGCYRQAPGKERELVAAISKSGGSTYYADSVKGRFTISRDNAKNTVYLQMNSLKPEDTAVYYSNALVRRRPGYIRYDYWGQGTQVTVSS | low polyreactivity
4 | QFHLVESGGGLVQAGGSLRLSCAASGSIFNEYAMGWYRQAPGKERELVAAITNISGRKYYADSVKGRFTISRDNAKNTVYLQMNSLKPEDTAVYYCNARRTYTRPYIHSVYNYYYWGQGTEVTVSS | high polyreactivity
5 | QFQLEESGGGLVQAGGSLRLSCAASGITFVDYAMGWYRQAPGKERELVAAITTGGSTNYADSVKGRFTISRDNAKNTVYLQMNSLKPEDTAVYYCNKRPVILYDYWGQGTQVTVSS | low polyreactivity
6 | QFQLEESGGGLVQAGGSLRLSCAASGSTFWYNAMVWYIQATGKEMELVAAISSSGGSTYYADSVKGRFTISRDNAKYTVYLQMNSLKPEDSAVYYCNTRYVYTRGGTLKRDYLGQGTQVTVSS | high polyreactivity
7 | QFQLEYSGGGLVQAGGSLRLSFASSGSTLARNAMGWYRQATVKERELVPSINGRTTRTYYADSVKGRFTISRDNAKNTVYLQMNSLKPEDTAVYYCAADPPGYVYGKRYYWGQGTQVTVSS | high polyreactivity
8 | QFQLLESGGGLVQAGGSLRLSCAASGFISDVYAMGWYRQAPGKERELDAVITWRGSTYYADSVKGSFTISRDNAKNTVYLQMNSLKPEDTALYYCAAESQGDWAFDYWGQGTQVTVSS | low polyreactivity
9 | QFQLVDSGGGLVQAGASLRLSCAASGFIFEWYTIGWSREAPGTAREFVARISSDGSTTYADSVKGRFTSSRDNAKNTVYLQMNSLKPEDTAVYYCADDVSYPGQKYIFDDWGQCTQVTVSS | low polyreactivity
10 | QFQLVDSGGGLVQAGGSLRLSCAASGRIFSTNAMGWYRLAPGKEWELDAAINWSTGSYVLRRSVKGRFTISRDNAKNTVYLQMNSLKTEDTAVYYCAARVTVVGDYYWGQGTQVTVSS | high polyreactivity
11 | QFQLVDSGGGLVQAGGSLRLSCAASGSTFYWYTMGWYREAPGKERELVATITSVGRTNYADSVKGRFTISRDNAKNTVYLEMNSLKPEDTAVYYCAASKARWPRGGSKYYDWGQGTQVTVSS | high polyreactivity
12 | QFQLVDSGGGLVQAGGSLRLSCAATGSTQPGYAMGWYRQAPGKERELVAAITSRGGTTYYADSVKGRFTISCDNAKNTVYLQMNSLKPEDTAVYYCAPYTSYASDYWGQGTQVTVSS | high polyreactivity
13 | QFQLVESGGALVQAGGSLRLSCAASGLIFGRYAMGWYRQAPGNERELVAAISWRGGSTFYADSVKGRFTISRDNAKNTVYLQMNSLKPEDTAVYYCNARYYPARVRTYDHWGQGTQVTVSS | high polyreactivity
14 | QFQLVESGGGFVQAGGSLRLSCAASGRIFYRYAMGCYSQAPGKERELVAAITWRGGSTYYADSVKGRFTISRDNANNTVYLQMNSLKPEDTAVYYCAAAAYGVPWRSYLGVFKSHMDYWGQGTQVTVSS | high polyreactivity
15 | QFQLVESGGGLDQAGGSLRISCAPSGITFEYYTMGLYRQAPGKEIEFVAAITQGGGTTYYADSVKGRFTISRDNEKNTVYLQMNSLKPEDTAVYYCAAYVGYLLLYYPTYYYWGQGTQVTVSS | low polyreactivity
16 | QFQLVESGGGLDQAGGSLRLICAASGITFDTNLMGWYRQAPGKERELVAAISARGGSTYYADSVKGRFTISRDNAKNTVYLQMNSLKPEDTAVYYCNAVIRPWQSYYYWGQGTQVTVSS | high polyreactivity
17 | QFQLVESGGGLVHAGGRLRLSCAASGITFVTYAMGWYRQAPGKERELVAAISRSGGRPYYADSVKGRFTISRDNATNTDYLQMNSLKPEDTAVYYCAAERKNKYDYWGQGTQVTVSS | high polyreactivity
18 | QFQLVESGGGLVHAGGSLRLICAASGRILYKYAMGWYRQAPGKERELVAAISGSGGRTYYADSVKGRFTISRDNAKNTVYLQMNSLKPEDTPVYYCAAVHPFRHVMYDYWGQGTQVTVSS | low polyreactivity
19 | QFQLVESGGGLVQAGGRLRLSCAASGRIFQLYTMGWYRQAPGKEREFVASISFITGRTYYADSVKGRFTISRDNAKKTVYLQMNSLKPEDTAVYYCNTRYDGGFDSWGQGTQVTVSS | high polyreactivity
20 | QFQLVESGGGLVQAGGSIRLSCAASGSTFTIYAMGWYRQAPGKERELVAAISGTGGTKYADSVKGRFTISRDNAKNTVYLQMTSLKPEDTAVYYCAARYMLWDGDSWTEFDYWGQGTQVTVSS | low polyreactivity
21 | QFQLVESGGGLVQAGGSLRLRCAASGLIIKKYTMGWYRQAPGKEMELVASISKSGGSTYYADSVKGRFTISRDNAKNTVYLQMNSLKPEDTAVYYCNRVTHYIRFDYWGQGTQVTVSS | low polyreactivity
22 | QFQLVESGGGLVQAGGSLRLSCAASGFIFQEYAMGWYGQAPGKERELVAAITSGGSTNYADSVKGRFTISRDNAKNTVYLQMNSLKPEDTAVYYCNVDSPDYYYDYDYWGHGTQVTVSS | low polyreactivity

Row | Sequence | polyreactivity (PSR sort gate)
23 | QFQLVESGGGLVQAGGSLRLSCAASGFIFRYNAMGWYRQAPGKERELVAAIDSGGSTYYADSVKGRFTISRDNAKNTVDLQMNSLKPEDTAVYYCYAVHEASYSGVDYWGQGTQVTVSS | low polyreactivity
24 | QFQLVESGGGLVQAGGSLRLSCAASGFTFAVYAMGWYRQAPWKERELVAAISRSGTRTYYADSVKGRFTISRDNAKNTVYLQMNSLKPVDTAVYYCAADKYRHGYDYWGQGTQVTVSS | low polyreactivity
25 | QFQLVESGGGLVQAGGSLRLSCAASGGIFDTNAMGWYRQATGKDRELVAAITVRGGSTYYADSVKGRFTISRDNAKNTVYLQMNSLKPEDTAVYYCATRSPKRAAVRYNYWGQGTQVTVSS | high polyreactivity
26 | QFQLVESGGGLVQAGGSLRLSCAASGGIFYTYAMGWYRQAPAKERAFVAAISRSGGRTRYADSVKGRFTISRDNAKNTVYLQMNSLKQEDTAVYYCAARVIGAGLLKYDKWGQGTQVTVSS | high polyreactivity
27 | QFQLVESGGGLVQAGGSLRLSCAASGGTFPYNAMGWYRQAPGKERELVAAISSSGTSTYYADSVKGRFTISRDNAKNTVYLQMNSLKPEDTAVYYCNDYFKRYDYWGQGTQVTVSS | high polyreactivity
28 | QFQLVESGGGLVQAGGSLRLSCAASGGTFYVNDMGWYRQAPGKERELVATITYSGTSTYYADSVKGRFTISRDNAKNTVYLQMNSLKPEDTAVYYCATDVLLYFEPVNLDYWGQGTQVTVSS | low polyreactivity
29 | QFQLVESGGGLVQAGGSLRLSCAASGIIFLENAMGWYRQAPGKEREFVAAISRSGGITYYADSVKGRFTISRDNAKNTVYLQMNSLKPEDTAVYYCAAVGRDRYRHSPQPLYDYWGQGTQVTVSS | low polyreactivity
30 | QFQLVESGGGLVQAGGSLRLSCAASGITFSNYALGWYRQAPGKERELVAAISKRGGSTYYADSVKGRFTISRDNAKTTVDLQMNSLKPEDTAVYYCAADAYNPPYWVDPYDYWGQGTQVTVSS | high polyreactivity
31 | QFQLVESGGGLVQAGGSLRLSCAASGLIFRRYAMGWYRQAPGKEREFVAAISWSGGSTYYADSVKGRFTISRDNAKNSVYLQINSLKPEDTGVSYFAAYDKSLYGSGYDYWGQGTQVTVSP | high polyreactivity
32 | QFQLVESGGGLVQAGGSLRLSCAASGLIFVINAMGWYRQAPGKERELDATISSGVSTNYADSVKGRFTISRDNAKNTVYLQMNSLKPEDTAVYYCNKDGVVEVRFTVRQEYDYWGQGTQVTVSS | low polyreactivity
33 | QFQLVESGGGLVQAGGSLRLSCAASGLTFSWYVMGWYRQAPGKERELVAAITNGGNTNYADSVKGRFTISRDNAKNTVYLQMNCLKPEDTAVYYCAARDPYTWPRSGSGYYEFDYWVQGTQVTVSS | low polyreactivity
34 | QFQLVESGGGLVQAGGSLRLSCAASGNTFYGYARGWYRQAPGKDRELVATMTGSGGDTYYADSVKGRFTISRDNANYTVYLPMNSLKPEDTAVYYCNAVEYYGGYPGTDYSYLAYNYWGQGTKVTVSS | low polyreactivity
35 | QFQLVESGGGLVQAGGSLRLSCAASGRIFGIYAMGWDRQAPGKESELVATITDSDDSTYYADSVKGRFTISRDNAKNTVYLQMNSLKPEDTAVYYCATAFSYGGGAYDYWGQGTQVTVSS | low polyreactivity
36 | QFQLVESGGGLVQAGGSLRLSCAASGRIFGRYSRGLYRQAPGKERELVAAITWLGTTYYADSVKGRFTISRDNAKNTVYLQMNSLKPEDTAVYYCATVVLLRIWGGYWGQGTQVTVSS | high polyreactivity
37 | QFQLVESGGGLVQAGGSLRLSCAASGRIFGVNAMGWYRPAPGKERELVAAISYRGGHTYADSVKGRFTISRDNAKNTVYLQMNSLKPEDTAVYYCAARNRSSTGLGSRYGYWGQGTQVTVSS | high polyreactivity
38 | QFQLVESGGGLVQAGGSLRLSCAASGRIFPGYAMGWYRQAPGKERELVAAISERGGSTYYADSVKGRFTISRDHAKNTVYLQMNSLKPEDTAVYYCAAIWRGGYNYWGQGTQVTVSS | low polyreactivity
39 | QFQLVESGGGLVQAGGSLRLSCAASGRIFPQYAMGWSRQATGKERELVAGITSVGSTYYADSVKGRFTISRDNAKNTVYLQMNSLKPEDTAVYYCAAFYRGGDYWGQGTQVTVSS | high polyreactivity
40 | QFQLVESGGGLVQAGGSLRLSCAASGRIFRGNAMGWYRQAPGKERELVAAILTGVSTYYADSVKGRFTISRDNAKNTVYLQMNSLKPEDTAVYYCAAERPSRRSGYEYWGQGTQVTVSS | low polyreactivity
41 | QFQLVESGGGLVQAGGSLRLSCAASGRIFYSNAMGWYRQAPGKERELVAAISSSGGITYYADSVKGRFTISRDNAKNTVNLQMNSLKPEDSAVYYCAVDSRHYIRAFDHWGQGTQVTVSS | low polyreactivity
42 | QFQLVESGGGLVQAGGSLRLSCAASGRTFIYYSMGWYRQAPGKERELVAAITRSGGSTNYADSVKGRFTISRDNSKNTVYIQMNSLKPEDTAVYYCAARFYGRRCIYGYWGQGTQVTVSS | high polyreactivity
43 | QFQLVESGGGLVQAGGSLRLSCAASGRTFQHNVMGWYIQAPGKERELVASITCRGGSTYYADSVKGRFTISRDNAKNTVYLQMNSLKPEDTAVYYCAARNGFRRVRFDYWGQGTQVTVSS | low polyreactivity

Reference: the nanobody polyreactivity screen of Harvey et al. (2022)
